Read-outs that look alike come from different tables or passages of the source.
How the values were obtained:
[1] = target: T1, GST-CCA1 (Arabidopsis thaliana, UniProt P92973 1-608); assay: EMSA
[2] = target: T1, GST-CCA1; assay: EMSA; remark: listed apart in the source

T1 sequence (P92973 whole entry): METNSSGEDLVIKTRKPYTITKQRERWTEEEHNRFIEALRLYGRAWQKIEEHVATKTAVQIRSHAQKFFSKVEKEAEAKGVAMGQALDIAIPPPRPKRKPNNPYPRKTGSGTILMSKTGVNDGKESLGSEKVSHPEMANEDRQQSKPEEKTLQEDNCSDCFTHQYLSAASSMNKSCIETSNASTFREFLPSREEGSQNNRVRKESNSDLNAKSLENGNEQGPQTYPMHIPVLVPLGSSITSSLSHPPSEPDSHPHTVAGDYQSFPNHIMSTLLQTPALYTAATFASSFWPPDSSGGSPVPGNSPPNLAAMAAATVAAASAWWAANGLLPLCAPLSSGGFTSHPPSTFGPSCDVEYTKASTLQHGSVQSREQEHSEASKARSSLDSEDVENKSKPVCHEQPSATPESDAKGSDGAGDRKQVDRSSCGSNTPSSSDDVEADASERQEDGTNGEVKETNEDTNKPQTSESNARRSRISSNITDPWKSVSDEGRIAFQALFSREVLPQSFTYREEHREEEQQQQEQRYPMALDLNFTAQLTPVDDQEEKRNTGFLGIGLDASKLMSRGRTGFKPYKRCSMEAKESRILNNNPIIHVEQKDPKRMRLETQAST

B1: LumF (LumFs/LumFa) (dsDNA)
DNA 1: AAGTGAAAAAAAAAAGAGATATTCGAAGGG
DNA 2: GATTCCCTTCGAATATCTCTTTTTTTTTTC
- binding result [1]: binds

B2: LumFD (LumFDs/LumFDa) (dsDNA)
DNA 1: AAGTGAAAAAAAAAAGAGCTATTCGAAGGG
DNA 2: GATTCCCTTCGAATAGCTCTTTTTTTTTTC
- binding result [2]: no binding

B3: LumM (LumMs/LumMa) (dsDNA)
DNA 1: TAAGTAGATATTGAAAGCAAGATTGAAAAAAATGTTG
DNA 2: AATCAAACATTTTTTTCAATCTTGCTTTCAATATCT
- binding result [1]: binds

B4: LumMD (LumMDs/LumMDa) (dsDNA)
DNA 1: TAAGTAGCTATTGAAAGCAAGATTGAAAAAAATGTTG
DNA 2: AATCAAACATTTTTTTCAATCTTGCTTTCAATAGCT
- binding result [2]: no binding
